# Literature values in paper PMC7850986.
# Key:
# IFNAR1 (Homo sapiens) = IFNAR1 (Homo sapiens) (UniProt P17181)
# IFNAR2 (Homo sapiens) = IFNAR2 (Homo sapiens) (UniProt P48551)
# Chain of UniProt P48551 (P48551 27-243): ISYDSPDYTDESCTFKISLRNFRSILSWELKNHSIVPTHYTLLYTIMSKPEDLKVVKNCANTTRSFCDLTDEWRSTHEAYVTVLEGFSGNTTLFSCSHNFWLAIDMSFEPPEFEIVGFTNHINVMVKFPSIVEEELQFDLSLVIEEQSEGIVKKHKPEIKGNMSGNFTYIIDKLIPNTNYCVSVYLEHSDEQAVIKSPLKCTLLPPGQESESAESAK
# Chain of UniProt P17181 (P17181 28-436): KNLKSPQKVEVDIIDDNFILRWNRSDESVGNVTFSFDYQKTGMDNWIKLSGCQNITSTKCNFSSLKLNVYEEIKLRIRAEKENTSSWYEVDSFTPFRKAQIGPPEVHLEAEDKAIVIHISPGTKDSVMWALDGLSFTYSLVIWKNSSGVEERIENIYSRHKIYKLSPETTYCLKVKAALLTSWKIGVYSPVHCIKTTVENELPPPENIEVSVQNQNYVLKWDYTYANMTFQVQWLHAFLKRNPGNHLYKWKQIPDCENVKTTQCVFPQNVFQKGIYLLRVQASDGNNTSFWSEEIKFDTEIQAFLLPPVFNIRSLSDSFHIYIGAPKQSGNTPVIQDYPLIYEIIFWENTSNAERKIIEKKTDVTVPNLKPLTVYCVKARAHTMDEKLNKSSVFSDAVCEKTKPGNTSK
substance,measurement,setting,value
IFNβ (from UniProt P01574),Kd,IFNAR1 (Homo sapiens),100 nM
same,Kd,IFNAR2 (Homo sapiens),0.1 nM
